US20110027321

Biological target: blue casein substrate (4-16% BlueCasein zymogram gel, Novex)

B1: recombinant 6 histidine tagged C. trachomatis HtrA polypeptide (serovar L2), purified from E. coli BL21 (DE3) (pET28-CtHtrA/L2) (protein)
chain: SPMLGYSASKKDSKADICLAVSSGDQEVSQEDLLKEVSRGFSRVAAKATPGVVYIENFPKTGNQAIASPGNKRGFQENPFDYFNDEFFNRFFGLPSHREQQRPQQRDAVRGTGFIVSEDGYVVTNHHVVEDAGKIHVTLHDGQKYTAKIVGLDPKTDLAVIKIQAEKLPFLTFGNSDQLQIGDWAIAIGNPFGLQATVTVGVVSAKGRNQLHIVDFEDFIQTDAAINPGNSGGPLLNINGQVIGVNTAIVSGSGGYIGIGFAIPSLMAKRVIDQLISDGQVTRGFLGVTLQPIDSELATCYKLEKVYGALVTDVVKGSPAEKAGLRQEDVIVAYNGKEVESLSALRNAISLMMPGTRVILKIVREGKTIEIPVTVTQIPTEDGVSALQKMGVRVQNITPEICKKLGLAADTRGILVVAVEAGSPAASAGVAPGQLILAVNRQRVASVEELNQVLKNSKGENVLLMVSQGDVVRFIVLKSDHHHHHHE
protease activity in zymogram gel (zone of clearing): Recombinant C. trachomatis HtrA degradation (i.e. proteolysis) of the blue casein substrate is visualized as a zone of clearing at ˜49 kDa
